Assays:
Experiment in all cases: FRET or BRET
Details in all cases: remark: other sources report otherwise
[1] = biological target: T1, CXCR4 fused to CFP (CXCR4-C) or to YFP (CXCR4-Y) (human), P61073
T1 chain: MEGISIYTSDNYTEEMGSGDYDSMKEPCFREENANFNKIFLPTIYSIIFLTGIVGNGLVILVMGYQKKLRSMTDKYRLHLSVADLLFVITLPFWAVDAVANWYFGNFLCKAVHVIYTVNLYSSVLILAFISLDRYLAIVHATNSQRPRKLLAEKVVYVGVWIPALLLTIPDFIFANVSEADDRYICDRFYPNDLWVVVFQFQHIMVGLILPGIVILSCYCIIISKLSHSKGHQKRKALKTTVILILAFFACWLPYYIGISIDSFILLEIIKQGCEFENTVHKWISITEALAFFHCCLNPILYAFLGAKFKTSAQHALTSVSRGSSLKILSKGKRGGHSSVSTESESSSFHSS

[2] = biological target: T1, CXCR4 fused to CFP (CXCR4-C) or to YFP …
[3] = biological target: T1, CXCR4 fused to CFP (CXCR4-C) or to YFP …

B1: CXCR4 fused to CFP (CXCR4-C) or to YFP (CXCR4-Y), P61073 1-352 (receptor)
chain: T1 chain
- FRET50 [1]: 1.55
- FRET50 [2]: 1.61
- FRET50 [3]: 1.27

Source: article PMC3302219
